Laboratory results reported in article doi:10.1101/2025.02.13.638205, “Cryo-EM structure of endogenous Plasmodium falciparum Pfs230 and Pfs48/45 fertilization complex” (bioRxiv, 2025).

Columns and labels:
recombinant Pfs230 D1D2 = recombinant Pfs230 D1D2 (Plasmodium falciparum 3D7/NF54, UniProt P68874); assay: BLI; conditions: both partners purified
[1] = target: recombinant Pfs230 D5D6 (T1281-G1549) (Plasmodium falciparum 3D7, UniProt P68874); assay: BLI; conditions: both partners purified
[2] = target: recombinant Pfs230 D11D12 (D2446-T2818) (Plasmodium falciparum 3D7, UniProt P68874); assay: BLI; conditions: both partners purified
[3] = target: Pfs230, endogenous, in fixed NF54/iGP2 stage V gametocytes (Plasmodium falciparum (endogenous in …, UniProt P68874)); assay: immunostaining of cells or tissue; conditions: one partner purified
[4] = target: T1, Pfs48/45, endogenous, from P. falciparum stage V gametocytes (Plasmodium falciparum NF54 (NF54/iGP2 …)); assay: pull-down; conditions: one partner purified
T1 construct: Pfs48/45 of Plasmodium falciparum, three 6-cysteine domains (D1-D3), migrates at about 50 kDa; residues 28-428 fitted in the cryo-EM model; also called P48/45; source: endogenous, P. falciparum NF54/iGP2 Pfs230FL stage V gametocytes; co-purified with Pfs230 (StrepTactin XT, SEC) and in parasite lysate
T1 chain: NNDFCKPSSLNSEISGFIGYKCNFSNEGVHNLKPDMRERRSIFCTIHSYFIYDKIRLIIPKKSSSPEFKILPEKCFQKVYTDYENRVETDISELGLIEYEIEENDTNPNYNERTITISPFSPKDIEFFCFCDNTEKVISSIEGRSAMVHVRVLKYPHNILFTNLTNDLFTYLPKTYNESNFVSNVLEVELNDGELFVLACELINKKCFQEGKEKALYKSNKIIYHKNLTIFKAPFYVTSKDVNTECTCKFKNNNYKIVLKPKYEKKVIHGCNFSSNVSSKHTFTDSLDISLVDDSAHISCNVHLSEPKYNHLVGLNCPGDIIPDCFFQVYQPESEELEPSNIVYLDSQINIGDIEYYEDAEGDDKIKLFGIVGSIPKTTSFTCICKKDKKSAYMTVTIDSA

Sequence of recombinant Pfs230 D11D12 (D2446-T2818) (P68874 2446-2818, one chain of several): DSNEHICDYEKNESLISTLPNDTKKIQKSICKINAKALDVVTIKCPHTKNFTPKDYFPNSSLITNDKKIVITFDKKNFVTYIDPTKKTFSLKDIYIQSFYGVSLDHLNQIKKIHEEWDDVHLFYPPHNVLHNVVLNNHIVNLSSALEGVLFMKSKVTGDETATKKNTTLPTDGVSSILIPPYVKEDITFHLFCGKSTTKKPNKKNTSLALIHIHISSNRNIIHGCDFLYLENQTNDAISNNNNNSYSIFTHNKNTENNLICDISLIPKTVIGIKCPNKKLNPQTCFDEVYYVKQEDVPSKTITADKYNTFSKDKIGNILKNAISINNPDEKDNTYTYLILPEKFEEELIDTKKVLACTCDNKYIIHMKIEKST
Sequence of recombinant Pfs230 D5D6 (T1281-G1549) (P68874 1281-1549): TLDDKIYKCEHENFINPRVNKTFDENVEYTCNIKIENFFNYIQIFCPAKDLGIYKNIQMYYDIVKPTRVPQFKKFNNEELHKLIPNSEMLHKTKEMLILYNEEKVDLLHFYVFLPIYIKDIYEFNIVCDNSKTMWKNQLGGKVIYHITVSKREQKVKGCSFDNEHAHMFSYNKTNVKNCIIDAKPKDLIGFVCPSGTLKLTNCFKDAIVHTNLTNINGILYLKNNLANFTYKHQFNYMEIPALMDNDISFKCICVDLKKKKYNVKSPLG
Sequence of Pfs230, endogenous, in fixed NF54/iGP2 stage V gametocytes (Plasmodium falciparum (P68874 21-3135): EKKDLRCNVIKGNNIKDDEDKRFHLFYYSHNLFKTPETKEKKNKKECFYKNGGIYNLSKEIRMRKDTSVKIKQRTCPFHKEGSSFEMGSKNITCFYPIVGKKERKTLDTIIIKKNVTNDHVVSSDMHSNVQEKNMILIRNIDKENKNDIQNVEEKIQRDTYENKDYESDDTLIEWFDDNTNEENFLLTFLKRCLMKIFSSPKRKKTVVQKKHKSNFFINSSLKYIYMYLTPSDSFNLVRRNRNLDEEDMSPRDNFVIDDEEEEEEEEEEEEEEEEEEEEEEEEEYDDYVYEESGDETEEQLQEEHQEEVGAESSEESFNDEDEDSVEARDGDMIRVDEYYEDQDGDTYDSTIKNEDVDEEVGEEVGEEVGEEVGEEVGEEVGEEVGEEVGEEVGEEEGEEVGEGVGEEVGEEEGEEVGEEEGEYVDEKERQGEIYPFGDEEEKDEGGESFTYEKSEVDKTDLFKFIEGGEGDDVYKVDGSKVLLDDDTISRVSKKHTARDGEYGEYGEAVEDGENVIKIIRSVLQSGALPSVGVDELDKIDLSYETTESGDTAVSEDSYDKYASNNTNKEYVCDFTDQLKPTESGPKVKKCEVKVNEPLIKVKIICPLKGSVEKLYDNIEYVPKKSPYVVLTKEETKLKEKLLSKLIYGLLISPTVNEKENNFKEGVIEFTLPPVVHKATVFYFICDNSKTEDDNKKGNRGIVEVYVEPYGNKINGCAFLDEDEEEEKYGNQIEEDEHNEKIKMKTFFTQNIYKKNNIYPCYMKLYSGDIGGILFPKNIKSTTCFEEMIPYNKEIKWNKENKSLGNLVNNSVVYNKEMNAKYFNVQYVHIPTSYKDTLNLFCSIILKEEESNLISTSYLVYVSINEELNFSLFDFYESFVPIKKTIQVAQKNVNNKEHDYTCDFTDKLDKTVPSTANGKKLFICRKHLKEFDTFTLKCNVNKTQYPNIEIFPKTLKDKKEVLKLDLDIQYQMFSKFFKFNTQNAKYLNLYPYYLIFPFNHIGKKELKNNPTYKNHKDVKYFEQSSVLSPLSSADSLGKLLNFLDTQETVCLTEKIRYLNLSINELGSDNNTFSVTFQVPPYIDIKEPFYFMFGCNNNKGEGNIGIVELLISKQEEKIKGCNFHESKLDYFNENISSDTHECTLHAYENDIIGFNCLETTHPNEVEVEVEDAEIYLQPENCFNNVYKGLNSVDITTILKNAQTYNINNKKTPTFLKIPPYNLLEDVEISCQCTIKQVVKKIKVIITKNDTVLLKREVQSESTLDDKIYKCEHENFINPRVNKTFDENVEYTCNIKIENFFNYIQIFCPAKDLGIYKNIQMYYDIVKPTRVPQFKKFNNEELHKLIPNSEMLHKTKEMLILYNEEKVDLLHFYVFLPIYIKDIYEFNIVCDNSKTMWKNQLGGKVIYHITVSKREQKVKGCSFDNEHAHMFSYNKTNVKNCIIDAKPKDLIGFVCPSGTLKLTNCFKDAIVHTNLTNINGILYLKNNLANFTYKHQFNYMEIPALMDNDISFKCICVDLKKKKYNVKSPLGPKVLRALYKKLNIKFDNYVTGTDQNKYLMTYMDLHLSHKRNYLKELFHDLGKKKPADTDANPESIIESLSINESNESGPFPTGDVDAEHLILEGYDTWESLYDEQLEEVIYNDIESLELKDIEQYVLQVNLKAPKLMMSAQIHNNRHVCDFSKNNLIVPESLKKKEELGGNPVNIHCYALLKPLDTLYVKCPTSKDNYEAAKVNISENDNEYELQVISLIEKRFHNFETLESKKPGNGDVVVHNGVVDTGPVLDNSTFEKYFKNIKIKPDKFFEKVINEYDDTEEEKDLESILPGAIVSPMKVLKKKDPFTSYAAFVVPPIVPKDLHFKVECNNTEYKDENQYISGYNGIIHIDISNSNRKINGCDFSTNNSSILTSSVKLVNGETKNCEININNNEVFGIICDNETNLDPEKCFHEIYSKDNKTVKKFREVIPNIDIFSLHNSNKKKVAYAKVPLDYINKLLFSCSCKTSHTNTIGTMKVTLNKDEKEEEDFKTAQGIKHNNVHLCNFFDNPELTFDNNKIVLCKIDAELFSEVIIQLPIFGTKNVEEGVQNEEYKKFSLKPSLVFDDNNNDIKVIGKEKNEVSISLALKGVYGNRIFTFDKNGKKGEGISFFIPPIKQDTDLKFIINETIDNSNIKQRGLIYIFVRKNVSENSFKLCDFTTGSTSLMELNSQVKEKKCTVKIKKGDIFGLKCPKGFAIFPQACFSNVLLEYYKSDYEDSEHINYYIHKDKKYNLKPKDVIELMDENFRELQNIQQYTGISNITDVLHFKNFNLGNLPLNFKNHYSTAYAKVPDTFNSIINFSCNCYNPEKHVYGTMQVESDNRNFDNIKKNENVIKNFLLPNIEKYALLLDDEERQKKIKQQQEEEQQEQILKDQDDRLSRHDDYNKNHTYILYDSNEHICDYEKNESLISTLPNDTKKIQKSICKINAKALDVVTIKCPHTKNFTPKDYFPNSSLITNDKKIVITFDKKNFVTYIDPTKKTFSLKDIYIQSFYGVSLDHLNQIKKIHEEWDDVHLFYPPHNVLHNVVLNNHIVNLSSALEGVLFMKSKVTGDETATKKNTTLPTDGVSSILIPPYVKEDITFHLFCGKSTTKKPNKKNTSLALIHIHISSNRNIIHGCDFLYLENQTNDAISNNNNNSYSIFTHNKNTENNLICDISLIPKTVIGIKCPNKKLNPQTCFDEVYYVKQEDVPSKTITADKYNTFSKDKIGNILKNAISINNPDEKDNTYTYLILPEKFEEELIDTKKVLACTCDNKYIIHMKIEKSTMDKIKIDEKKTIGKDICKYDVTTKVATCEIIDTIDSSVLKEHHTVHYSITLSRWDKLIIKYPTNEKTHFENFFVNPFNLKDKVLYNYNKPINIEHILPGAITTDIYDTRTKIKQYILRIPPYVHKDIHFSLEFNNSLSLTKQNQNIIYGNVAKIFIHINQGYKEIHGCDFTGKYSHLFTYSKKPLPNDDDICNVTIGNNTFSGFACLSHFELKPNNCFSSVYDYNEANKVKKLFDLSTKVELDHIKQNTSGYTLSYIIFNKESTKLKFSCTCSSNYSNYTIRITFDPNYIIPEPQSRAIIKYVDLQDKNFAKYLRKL

Binder	binding result (recombinant Pfs230 D1D2)	binding result [1]	binding result [2]	binding result [3]	binding result [4]
nanobody W2810 (VHH) VHH: QVQLQESGGGLVQAGGSLRLSCAASGRTFSSYAMGWFHQAPGKEREFVASISWSGGSIRYADSVKGRFTVSRDNAKNTAYLQMNSLKPEDTGVYYCAAGPYSSDYGGFGSWGQGTQVTVSS	no binding (tested: 100 nM)	no binding (tested: 100 nM)	no binding (tested: 100 nM)	binds	–
nanobody W2812 (VHH) VHH: QVQLQESGGGLVQPGGSLRLSCAASGRTFSSYMMAWFRQSQGNERELVAGLTRSGVSAYYADSVKGRFTISRDNAKNTVYLQMNSLKPKDTAVYYCAAASTTYINHIYTNPSNYPHWGPGTQVTVSS	no binding (tested: 100 nM)	no binding (tested: 100 nM)	no binding (tested: 100 nM)	binds	–
anti-Pfs48/45 monoclonal antibody TB31F (antibody, V domains shown) VH: EVQLVQSGGGLVQPGGSLRLSCAASGFTFNNYWMSWVRQAPGKGLEWVSSISNIGGTIYYPDSVKGRFTISRDNSKNTLYLQMNSLRAEDTAVYYCTRDLRMSDYFDYWGQGTMVTVSS VL: NFMLTQPHSVSESPGKTVTISCTRSTGNIGSNYVSWYQQRPGSSPTTVIYRDDQRPSGVPDRFSGSIDRSSNSASLTISGLKTEDEADYYCHSYSTGMYIFGGGTKLTVL	–	–	–	–	binds
nanobody W2809 (VHH) VHH: QVQLQESGGGLVQAGGSLRLSCAASEHTFRDYAMGWFRQAPGKEREFVAAISWSGSIKYYADSVKGRFTISRDNAKRTQYLQMSSLKPEDTAVYYCAARWPGGGMWYEPPYDYWGQGTQVTVSS	no binding	no binding	no binding	–	–
